Assay: yeast display, Sf9 membrane polyspecificity reagent, FACS + sequencing; frameworks hold sequencing errors
Outline: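 After 36–48 hours of galactose induction, yeast (Saccharomyces cerevisiae BJ5465) displaying a synthetic nanobody library were stained at 4 °C for 1 hour with 10% biotinylated, detergent-solubilized Sf9 membrane reagent. Streptavidin microbeads enriched the stained cells before FACS sorting into low and high (top ~1%) gates on anti-HA and streptavidin fluorescence. Each clone's polyreactivity label reflects its gate of origin.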
With “QVQLVESAGALVQAGGRLRLSCAASGRTFRKYAMGWYRQAPGTERELVAAISWSGGSTYYANSVKGRFTISRDNAKNTVYLQMNSLKPEDTAVYYWAAVPVHTGSLYWGFTTGYDYWGQGTQVTVSS” the “polyreactivity (PSR sort gate)” value was “low polyreactivity”.
With “QVQLVESGGGLVQAGGSLRLSCAASRYTFTLYAMGWYRKAPGKEWELLAAISRSGGSTYYADSVKGRFTISRDNAKITVYLQMNSLKPEDTAVYYCAADKYFAWGYPSGLWYDYWGQGTQVTVSS” the “polyreactivity (PSR sort gate)” value was “high polyreactivity”.
In the case of “QVQLVESGGGLVQAGGSLRLSCAASGSIFTQYTMGWYRQAPGKERELVAAISRSGGRTYYADSVKGRFTISRDNSKNTVYLQMKSLKPEDTAVYYCAAEYTDKYEYWGQGTQVTVSS”, the “polyreactivity (PSR sort gate)” value was “high polyreactivity”.
In the case of “PVQLVESGGGLVQAGGSLRLSCAASGSTFDAYDLGWYRQAPGKERELVAAINWSGGITYYADSVKGRFTISRDNAKNTVYLQMNSLKPEDTAVYYCNADASFYSRVNYWGQGTQVTVSS”, the “polyreactivity (PSR sort gate)” value was “high polyreactivity”.
With “QVQLVESGGGLVQAGGSLRLSCAASGSIFGRYAMGWYRQAPGKERELVAAISSSGGRTYYADSVKGRFTISRDNAKNTVYLKMNSLKPEDTAVYYCNKDWYYLIPGYNYWGQGTQVTVSS” the “polyreactivity (PSR sort gate)” value was “high polyreactivity”.
For “QVQLVESGGVLVQAGGSLRLSCAASGNAMGWYRQAPGKERELVAAITRRGGSTYYADSVKGRFTISRDNAKNTVYLQINSLIPEDTAVYYCAADNPSYNLWYGYWGQGTQVTVSS”, the “polyreactivity (PSR sort gate)” value was “low polyreactivity”.
With “QVQLVESGGGLVQAGGSLRLTCDASGSTFVNYAMGWYRQAPGKERELVAAITDSGGSTYYADSVKGRFTISRDNAKNTVYLQMNCLKPEDTAVYYCATEGYYYYTSYDYWGQGTQVTVSS” the “polyreactivity (PSR sort gate)” value was “low polyreactivity”.
For “QVQLVESGGGLVQAGASLRLSCAGSGLIFTTYAMGWYRQAAGKERELVADINSDGSTYYADSVKGRFTISRDNAKNTVYLQMNSLKPEDTAVYYCAKDYVHQYGVYKVWANNYNYWGQGTQVTVSS”, the “polyreactivity (PSR sort gate)” value was “low polyreactivity”.
In the case of “QVQLVESGGGLVQAGGSLRLSCAASGITLVRYAMGWYRQAPGKERELVASIRGTGGSTYYADSVKGRFTISRDNAKNTVYLQMNSLKPEDTAVYYCAAGRYDYWGQGTQVTVSS”, the “polyreactivity (PSR sort gate)” value was “high polyreactivity”.
In the case of “QVQLVESGGGLVQAGGSLRLSCASSGRIFPWNTMGWYRQAPGKERELVAGINNGDRTYYADSVKGRFTISRDNAKNRVYLQMNSLKPDETAVYYCARDDNPIYSGVTYDSWGQGTQVSVSS”, the “polyreactivity (PSR sort gate)” value was “low polyreactivity”.
In the case of “QVQLVESGGGLVQAGGSLRLSCAASGFTFWRYAMGWYRQAPGKERELVAAISWRGSSTYYADSVKGRFTISRDNAKNTVYLQMNSLKPEDSAVYYCAARYITFNGYGYGYWGQGTQVTVSS”, the “polyreactivity (PSR sort gate)” value was “high polyreactivity”.
In the case of “QFQLVESGGGLVQAGGSLRLSCAASGFTISWNTMGWYRQAPRKERELVATISGSGGRTYYADSVKGRFTISRDNAKNTVYFQMNSMKPEDTAVYYCAARYVLGGQGTSRRVRGGYWGQGTQLTVSS”, the “polyreactivity (PSR sort gate)” value was “high polyreactivity”.
In the case of “QVQLVESGGGLVQAGGSLRLSCAASGSTLYAYAMGWYRQAPGKERELVAAIRTGGSTYYADSVKGRFTISRDNAKNTVYLQMNSLKPEDTAVYYCAADHGYQYGYWGQGTQVTVSS”, the “polyreactivity (PSR sort gate)” value was “low polyreactivity”.
With “QVQLVESGGGLVQAGGSLRLICAASGSIFTSNAMGWYRQAPGKERELVAAITSDGAITYADSVKGRFTISRDNAKNTVYLQMNSLKPEDTAVYYCATEIEYYVGSVADMGYWGQGTQVTVSS” the “polyreactivity (PSR sort gate)” value was “low polyreactivity”.
In the case of “QVQLVESGGGLVQAGGSLRLSCAASGSIFGPYAMGWYRQAPGKERELVARITLSAGNTYYADSVKGRFTISRDNAKNTVYLQMNSLKPEDTAVYYCAAKVYSKYWFVGNYWGQGRQVTVSS”, the “polyreactivity (PSR sort gate)” value was “high polyreactivity”.
In the case of “QVQLVESGGGLVQAGGSLRLSCAASGSIFKYYTMGWYRQAPGKERELVAAISGSGSRTYYADSVKGRFTISRDNAKNTVYLQMNSLKPEDTAVYYCAAEVKDSFVNAKSYYWGQGTQVTVSS”, the “polyreactivity (PSR sort gate)” value was “high polyreactivity”.
With “QVQLVESGGGLVQAGGSLRLSCAASGRTFNYNTMGWYRQAPGKERELVAAINKGGTRTYYADSVKGRFTISRDNAKNTVYLQMKSLNPEDTAVYYCAARIGGGSYWGQVTQVTVSS” the “polyreactivity (PSR sort gate)” value was “high polyreactivity”.
In the case of “QVQLVESGGGLVQAGGSLRLSCAASGSIVSTYAMGWYSQAPGKERELVAAITSTGSMNYADSVKGRFTISRDNAKNTVYLQMNSLKPEDTAVYYCAARYAGPSPTDTGHDYWGQGTQVTVSS”, the “polyreactivity (PSR sort gate)” value was “low polyreactivity”.
With “QVQLVESGGGLVQAGGSLRLSCAASGFTFDDYTMGWYRHAPGKERELVAAITSSGDSTYYADSVKGRFTISRDNAKNTVYLQMNSLKPEDTAVYYCAAQSYPFDRDYWGQGTQVTVSS” the “polyreactivity (PSR sort gate)” value was “high polyreactivity”.
With “QVQLVESGGGLVQAGGSLRLSCAASGSIIGSNAMGWYRQAPGKERELVAAISRSGTRTYYADSVKGRFTISRDNAKNTVYLQMNSLKPEDTAVYYCATRGGGYWGQGTQVTVSS” the “polyreactivity (PSR sort gate)” value was “high polyreactivity”.
In the case of “QVQHVESVGRLVQAGGSLRLSCAASGFTFKYYAMGWYRQAPGKERELVAVISSSGGSTYYADSVKGRFTISRDNAKNTVYLQMNSLKPEDTAVYYCAAELVYRYFVKDADDYWGQGTQVTVSS”, the “polyreactivity (PSR sort gate)” value was “low polyreactivity”.
For “QVQLVESGGGLVQAGGSLRLSCAASGSPFGDSAMGWYRQAPGKERELVAAISVYGASTYYADSVKGRFTISRDNAKNTVYLHMNSLKPEDTEVYYCAATYDTIGDSWGQGTQVTVSS”, the “polyreactivity (PSR sort gate)” value was “low polyreactivity”.
For “QGQLVESAGGLVQAGGSLRLSCGASGRSFYSYTMGWYRQAPVKERELVAAITRADRTHYADSVKGRFTISRDYATKHVDCERNSQKPEDTAVYYAATRQVYSVRYYYRGQGTQVTVSS”, the “polyreactivity (PSR sort gate)” value was “high polyreactivity”.
In the case of “QVQLVESGGGLVQAGGSLRLSCAASGSTSPGYAMGWYRQAPGKERELVAAITFRGTRTYYSDSVKGRFTISRDNAKNTVYLQMNSQKPDDTAVYYCNVVGYGPNRGRVDYCGQGTQVTVSS”, the “polyreactivity (PSR sort gate)” value was “high polyreactivity”.
In the case of “QVQLVESGGGLVQAGGSLRLSCAASGRTFSRYTMGWYRQAPGKERELVARISQRGGSTYYADSVKGRFTISRDYAKNTVYLQMNSLKPEDTAVYYCAKKTYSPYGGYDSWGQGTQVTVSS”, the “polyreactivity (PSR sort gate)” value was “high polyreactivity”.
For “QVQLVESGGGLVQAGGILRLSCAASGSIFQRYVMGWYRQAPGKAREFVAGITRSGGSTYYADSVKGRFTISRDNAKNTVYLPMNSQKPEDTAVYNCAAALVRGTYKYDYWGQGTQVTFSS”, the “polyreactivity (PSR sort gate)” value was “high polyreactivity”.
In the case of “QVQLVESGGGLVQAGGSLRLSCAASGRIFDQNAMGWYRQAPGKDRELVAAISSSGGRTYYADSVKGRFTISRDNAKNPVYLQMNSLKPEDTAVYYCNKDRTVTTYEYWGQGTQVTVSS”, the “polyreactivity (PSR sort gate)” value was “high polyreactivity”.
For “QVQHVESGGGLVQAGGSLRLSCAASGRIFDTYTMGWYRAAPGKVRELVAAITSGGSTYYADSVKGRFTISRDNATNTVYLQMNSLKPEDTAVYYCAARYRSIIRYYYWGQGTQVTVSS”, the “polyreactivity (PSR sort gate)” value was “high polyreactivity”.
With “QVQLVESGGGLVQAGGSLRLSCAASGSIFDVYGMGWYRQAPGKEREFVADITSRGTRTYYADSVKGRFTISRDNAKNTVYLQMNSLKPEDTAVYYCNTLVGVDFWLVDYWGQGTQVTLSS” the “polyreactivity (PSR sort gate)” value was “low polyreactivity”.
In the case of “QVQLVESGGGLVQAGGSLRLSCAASGFIFPEYAMGWYRQAPGKERELVAAINWSGGNTYYADSVKGRFTISRDNAKNTVYLQMNSLKPEDTAVYYCNVDDWVTDDDYWGQGTQVTVSS”, the “polyreactivity (PSR sort gate)” value was “low polyreactivity”.
In the case of “QDQLVESGGGLVQAGGSLGLSCAASGIIFYGYAMRWYRPAPGKERELVAAISRSGGSTYYADSVKGRFTISRDNAMNTVYLQMNSLKPEDTAVYYCAASGVTYDYWGQGTQVTVSS”, the “polyreactivity (PSR sort gate)” value was “high polyreactivity”.
For “QVQLVESGGGLVQAGGSLRLTCAASGSTFYIYAMGWYRQAPGKERELVAAISQGGGSTSYADSVKGRFTISRDYAKNTVYLQMNSLKPEDTAVYYCAARRASRVRGKEGGYWGQGSQVTVSS”, the “polyreactivity (PSR sort gate)” value was “high polyreactivity”.
For “PLQLVESGGGLVQAGGSLRLSGAASGIIFNQYPMGWYRQAPGKEREFVPAISSSGGSTYYADSVKGRFTISRDYAKNTVYLQMNSLKPADTAVYFCSADSPGWTYTSRSYDYWGQGTQVTLSS”, the “polyreactivity (PSR sort gate)” value was “low polyreactivity”.
In the case of “QVQLVESGGGLVQAGGSLRLSCAASGSILVPYTMGWYRQAPGKERELVASISYSGGTTYYADSVKGRFTISRDNAKNTVYLQMNSLKPEDTAVYYCAADWDESYSYRRYRHYNYWGQGTQVTVSS”, the “polyreactivity (PSR sort gate)” value was “low polyreactivity”.
With “QVQLVESGGGLVQAGGSLRLSCAASGSIFIPYTMGWYRQEPGKARELVAAITKRGGSTYYADSVKGRFTISRDNAKNSVYLQMNSLKPEDTAVYYCNAIKYDPGRWAEYGYWGQGTQVTVSS” the “polyreactivity (PSR sort gate)” value was “high polyreactivity”.
In the case of “QVQLVESGGGLVQAGGSLRLSCAASGITFNWYAMGWYRQAPGKERELVAAISGSGGRTYYADSVKGRFTISRDYPKNTVYLQMTSLKPEDTAVYYCNKVPYYAGQNYVYWGQGTQVTVSS”, the “polyreactivity (PSR sort gate)” value was “high polyreactivity”.
For “QDQLVESGGGLVQAGGSLSLSCADSGLTFGANTMGWYRQAPGKERELVATITQSVGRTYYADSVKGRFTISRDNAKNTVYLQMNSLKPEDTADYYCNAELYTVRVYTHPVYVRHDYWGQGTQVTVSS”, the “polyreactivity (PSR sort gate)” value was “high polyreactivity”.
For “QVQLLESGGGLFQAGGSLRLSCAASGRIFDPYAMGWYRKAPWKETELVAAISWRGGSTNYADSVKGRFTISRDNAKNTVYLQMNSLKPEDTAVYYCAAVPVRYRYSYGYYYWGQGTQVTVSS”, the “polyreactivity (PSR sort gate)” value was “high polyreactivity”.
In the case of “QFQLVESGGGLVQAGGSLRLSCADSGFIFFSNARPWYRHAPGKDRELVAVIDRATSTYYADSVKGRFTISRDNAKYTVYLQMNSLKPEDTAVYYCNADGEEVYDCNYFLSFKGDYWGQGTQVTVSS”, the “polyreactivity (PSR sort gate)” value was “low polyreactivity”.
For “QVQLVDSGGGLVQAGGSLRLSCAASGFTFYRYAMGWYRPAPGKERELVAGITGSGGNTYYADSVKGRFTISRDNAKNTVYLQMNSLKPEDTAVYYCAAEDYVGWYNFEYWGQGNQVTVSS”, the “polyreactivity (PSR sort gate)” value was “high polyreactivity”.
For “QVQLVESGGGLVQAGGSLRLSCAASGRIFDFYAMGWYRQAPGKERELVAAISWDGSDTYYADSVKGRFTISRDNAKNTVYLQMNSLKPEDTAVYYCAADYYSPSGQEYNYWGQGTQVTVSS”, the “polyreactivity (PSR sort gate)” value was “high polyreactivity”.

From the nanobody polyreactivity screen of Harvey et al. (2022)
